How the values were obtained:
[1] = target: GDP-tubulin (biotinylated α/β-tubulin heterodimer with GDP-bound β-tubulin) (UniProt Q71U36)
[2] = target: GDP-tubulin (biotinylated α/β-tubulin heterodimer with GDP-bound β-tubulin) (UniProt Q71U36); test: pull-down; supernatant depletion at equilibrium, same assay as for GTP-tubulin but with bead-bound GDP-tubulin; BuGZ construct (or mEGFP control) in solution; fit with Equation S2 for wild-type BuGZ
[3] = target: GTP-tubulin (biotinylated α/β-tubulin heterodimer with GTP-bound β-tubulin) (UniProt Q71U36); test: pull-down; supernatant depletion at equilibrium; varying concentrations of biotinylated GTP-tubulin on streptavidin-coated magnetic beads; BuGZ construct (or mEGFP control) in solution, BuGZ 1.19 μM; 4 °C; nocodazole present; depletion from the supernatant measured by immunoblotting

Substance: BuGZ-ΔGLEBS (from UniProt Q7ZXV8 1-452) (natural protein)
- GTP α-32P incorporation into GDP-tubulin at equilibrium, increase relative to controls [1]: 57.4%
- Kd [2]: 54.2 nM
- Kd [3]: 408 nM

Source: paper PMC12302650
